Laboratory results reported in patent US20230416330A1, “Optimized GIP Peptide Analogues” (Antag Therapeutics ApS, priority 2019, published 2023).
Starred links: 1 amine or outer side, 2 acyl side, 3 side chain; linkers in the order of their positions; H or OH if unused. Non-standard residues stand in square brackets, D forms with d. Groups on a side chain read outwards from the residue. No end group written: not given here. *: point of attachment. C20 diacid = O=C(O)CCCCCCCCCCCCCCCCCCC(=O)*; C18 diacid = O=C(O)CCCCCCCCCCCCCCCCC(=O)*; C16 diacid = O=C(O)CCCCCCCCCCCCCCC(=O)*; γGlu = O=C(O)[C@H](CCC(=O)[*:2])N[*:1]; Adipoyl = O=C(CCCCC(=O)[*:2])[*:1]; Glutaryl = O=C(CCCC(=O)[*:2])[*:1]; Palmitoyl = CCCCCCCCCCCCCCCC(=O)*; Suc = O=C(CCC(=O)[*:2])[*:1]; Nle = CCCC[C@H](N)C(=O)O; AEEA = NCCOCCOCC(=O)O; Aib = CC(C)(N)C(=O)O

T1: human GIP receptor (human, UniProt P48546 22-466)
T1 sequence (looked up): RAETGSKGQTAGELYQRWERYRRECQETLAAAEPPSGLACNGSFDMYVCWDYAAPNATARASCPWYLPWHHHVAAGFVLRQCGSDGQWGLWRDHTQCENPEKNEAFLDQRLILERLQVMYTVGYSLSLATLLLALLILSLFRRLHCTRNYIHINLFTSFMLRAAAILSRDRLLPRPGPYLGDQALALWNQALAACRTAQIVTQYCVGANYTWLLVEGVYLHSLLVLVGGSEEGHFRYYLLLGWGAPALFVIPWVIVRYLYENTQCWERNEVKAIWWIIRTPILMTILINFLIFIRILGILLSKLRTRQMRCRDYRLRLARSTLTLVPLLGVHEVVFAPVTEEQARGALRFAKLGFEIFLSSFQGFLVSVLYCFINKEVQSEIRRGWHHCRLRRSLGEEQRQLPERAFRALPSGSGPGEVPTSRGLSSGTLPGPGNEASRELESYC

B1: AT750 (peptide)
peptide: EGTFISDYSIAMDKIK(C20 diacid)QQDFVEWLLAQKPSSGAPPPS-OH
modifications: N-terminus assumed
SMILES: CC[C@H](C)[C@H](NC(=O)[C@H](CO)NC(=O)[C@H](Cc1ccc(O)cc1)NC(=O)[C@H](CC(=O)O)NC(=O)[C@H](CO)NC(=O)[C@@H](NC(=O)[C@H](Cc1ccccc1)NC(=O)[C@@H](NC(=O)CNC(=O)[C@@H](N)CCC(=O)O)[C@@H](C)O)[C@@H](C)CC)C(=O)N[C@@H](C)C(=O)N[C@@H](CCSC)C(=O)N[C@@H](CC(=O)O)C(=O)N[C@@H](CCCCN)C(=O)N[C@H](C(=O)N[C@@H](CCCCNC(=O)CCCCCCCCCCCCCCCCCCC(=O)O)C(=O)N[C@@H](CCC(N)=O)C(=O)N[C@@H](CCC(N)=O)C(=O)N[C@@H](CC(=O)O)C(=O)N[C@@H](Cc1ccccc1)C(=O)N[C@H](C(=O)N[C@@H](CCC(=O)O)C(=O)N[C@@H](Cc1c[nH]c2ccccc12)C(=O)N[C@@H](CC(C)C)C(=O)N[C@@H](CC(C)C)C(=O)N[C@@H](C)C(=O)N[C@@H](CCC(N)=O)C(=O)N[C@@H](CCCCN)C(=O)N1CCC[C@H]1C(=O)N[C@@H](CO)C(=O)N[C@@H](CO)C(=O)NCC(=O)N[C@@H](C)C(=O)N1CCC[C@H]1C(=O)N1CCC[C@H]1C(=O)N1CCC[C@H]1C(=O)N[C@@H](CO)C(=O)O)C(C)C)[C@@H](C)CC
B2: AT753 (peptide)
peptide: Adipoyl-GTFISEYSI[Aib]LEKIK([AEEA-AEEA-γGlu-C18 diacid])QQEFVEWLLAQKPSSGAPPPS-OH
SMILES: CC[C@H](C)[C@H](NC(=O)[C@H](CCCCN)NC(=O)[C@H](CCC(=O)O)NC(=O)[C@H](CC(C)C)NC(=O)C(C)(C)NC(=O)[C@@H](NC(=O)[C@H](CO)NC(=O)[C@H](Cc1ccc(O)cc1)NC(=O)[C@H](CCC(=O)O)NC(=O)[C@H](CO)NC(=O)[C@@H](NC(=O)[C@H](Cc1ccccc1)NC(=O)[C@@H](NC(=O)CNC(=O)CCCCC(=O)O)[C@@H](C)O)[C@@H](C)CC)[C@@H](C)CC)C(=O)N[C@@H](CCCCNC(=O)COCCOCCNC(=O)COCCOCCNC(=O)CC[C@H](NC(=O)CCCCCCCCCCCCCCCCC(=O)O)C(=O)O)C(=O)N[C@@H](CCC(N)=O)C(=O)N[C@@H](CCC(N)=O)C(=O)N[C@@H](CCC(=O)O)C(=O)N[C@@H](Cc1ccccc1)C(=O)N[C@H](C(=O)N[C@@H](CCC(=O)O)C(=O)N[C@@H](Cc1c[nH]c2ccccc12)C(=O)N[C@@H](CC(C)C)C(=O)N[C@@H](CC(C)C)C(=O)N[C@@H](C)C(=O)N[C@@H](CCC(N)=O)C(=O)N[C@@H](CCCCN)C(=O)N1CCC[C@H]1C(=O)N[C@@H](CO)C(=O)N[C@@H](CO)C(=O)NCC(=O)N[C@@H](C)C(=O)N1CCC[C@H]1C(=O)N1CCC[C@H]1C(=O)N1CCC[C@H]1C(=O)N[C@@H](CO)C(=O)O)C(C)C
B3: AT755 (peptide)
peptide: Glutaryl-GTFISEYSI[Aib][Nle]EKIK(C16 diacid)QQEFVEWLLAQKPSSGAPPPS-OH
SMILES: CCCC[C@H](NC(=O)C(C)(C)NC(=O)[C@@H](NC(=O)[C@H](CO)NC(=O)[C@H](Cc1ccc(O)cc1)NC(=O)[C@H](CCC(=O)O)NC(=O)[C@H](CO)NC(=O)[C@@H](NC(=O)[C@H](Cc1ccccc1)NC(=O)[C@@H](NC(=O)CNC(=O)CCCC(=O)O)[C@@H](C)O)[C@@H](C)CC)[C@@H](C)CC)C(=O)N[C@@H](CCC(=O)O)C(=O)N[C@@H](CCCCN)C(=O)N[C@H](C(=O)N[C@@H](CCCCNC(=O)CCCCCCCCCCCCCCC(=O)O)C(=O)N[C@@H](CCC(N)=O)C(=O)N[C@@H](CCC(N)=O)C(=O)N[C@@H](CCC(=O)O)C(=O)N[C@@H](Cc1ccccc1)C(=O)N[C@H](C(=O)N[C@@H](CCC(=O)O)C(=O)N[C@@H](Cc1c[nH]c2ccccc12)C(=O)N[C@@H](CC(C)C)C(=O)N[C@@H](CC(C)C)C(=O)N[C@@H](C)C(=O)N[C@@H](CCC(N)=O)C(=O)N[C@@H](CCCCN)C(=O)N1CCC[C@H]1C(=O)N[C@@H](CO)C(=O)N[C@@H](CO)C(=O)NCC(=O)N[C@@H](C)C(=O)N1CCC[C@H]1C(=O)N1CCC[C@H]1C(=O)N1CCC[C@H]1C(=O)N[C@@H](CO)C(=O)O)C(C)C)[C@@H](C)CC
B4: AT751 (peptide)
peptide: EGTFISDYSIAMDKIK(Palmitoyl)QQDFVEWLLAQKPSSGAPPPS-OH
modifications: N-terminus assumed
SMILES: CCCCCCCCCCCCCCCC(=O)NCCCC[C@H](NC(=O)[C@@H](NC(=O)[C@H](CCCCN)NC(=O)[C@H](CC(=O)O)NC(=O)[C@H](CCSC)NC(=O)[C@H](C)NC(=O)[C@@H](NC(=O)[C@H](CO)NC(=O)[C@H](Cc1ccc(O)cc1)NC(=O)[C@H](CC(=O)O)NC(=O)[C@H](CO)NC(=O)[C@@H](NC(=O)[C@H](Cc1ccccc1)NC(=O)[C@@H](NC(=O)CNC(=O)[C@@H](N)CCC(=O)O)[C@@H](C)O)[C@@H](C)CC)[C@@H](C)CC)[C@@H](C)CC)C(=O)N[C@@H](CCC(N)=O)C(=O)N[C@@H](CCC(N)=O)C(=O)N[C@@H](CC(=O)O)C(=O)N[C@@H](Cc1ccccc1)C(=O)N[C@H](C(=O)N[C@@H](CCC(=O)O)C(=O)N[C@@H](Cc1c[nH]c2ccccc12)C(=O)N[C@@H](CC(C)C)C(=O)N[C@@H](CC(C)C)C(=O)N[C@@H](C)C(=O)N[C@@H](CCC(N)=O)C(=O)N[C@@H](CCCCN)C(=O)N1CCC[C@H]1C(=O)N[C@@H](CO)C(=O)N[C@@H](CO)C(=O)NCC(=O)N[C@@H](C)C(=O)N1CCC[C@H]1C(=O)N1CCC[C@H]1C(=O)N1CCC[C@H]1C(=O)N[C@@H](CO)C(=O)O)C(C)C
B5: AT754 (peptide)
peptide: EGTFISEYSI[Aib]LEKIK([AEEA-AEEA-γGlu-C18 diacid])QQDFVEWLLAQKPSSGAPPPS-OH
modifications: N-terminus assumed
SMILES: CC[C@H](C)[C@H](NC(=O)[C@H](CCCCN)NC(=O)[C@H](CCC(=O)O)NC(=O)[C@H](CC(C)C)NC(=O)C(C)(C)NC(=O)[C@@H](NC(=O)[C@H](CO)NC(=O)[C@H](Cc1ccc(O)cc1)NC(=O)[C@H](CCC(=O)O)NC(=O)[C@H](CO)NC(=O)[C@@H](NC(=O)[C@H](Cc1ccccc1)NC(=O)[C@@H](NC(=O)CNC(=O)[C@@H](N)CCC(=O)O)[C@@H](C)O)[C@@H](C)CC)[C@@H](C)CC)C(=O)N[C@@H](CCCCNC(=O)COCCOCCNC(=O)COCCOCCNC(=O)CC[C@H](NC(=O)CCCCCCCCCCCCCCCCC(=O)O)C(=O)O)C(=O)N[C@@H](CCC(N)=O)C(=O)N[C@@H](CCC(N)=O)C(=O)N[C@@H](CC(=O)O)C(=O)N[C@@H](Cc1ccccc1)C(=O)N[C@H](C(=O)N[C@@H](CCC(=O)O)C(=O)N[C@@H](Cc1c[nH]c2ccccc12)C(=O)N[C@@H](CC(C)C)C(=O)N[C@@H](CC(C)C)C(=O)N[C@@H](C)C(=O)N[C@@H](CCC(N)=O)C(=O)N[C@@H](CCCCN)C(=O)N1CCC[C@H]1C(=O)N[C@@H](CO)C(=O)N[C@@H](CO)C(=O)NCC(=O)N[C@@H](C)C(=O)N1CCC[C@H]1C(=O)N1CCC[C@H]1C(=O)N1CCC[C@H]1C(=O)N[C@@H](CO)C(=O)O)C(C)C
B6: AT705 (peptide)
peptide: Glutaryl-GTFISEYSI[Aib]LEKIK([AEEA-AEEA-γGlu-C18 diacid])QQEFVEWLLAQKPSSGAPPPS-OH
SMILES: CC[C@H](C)[C@H](NC(=O)[C@H](CCCCN)NC(=O)[C@H](CCC(=O)O)NC(=O)[C@H](CC(C)C)NC(=O)C(C)(C)NC(=O)[C@@H](NC(=O)[C@H](CO)NC(=O)[C@H](Cc1ccc(O)cc1)NC(=O)[C@H](CCC(=O)O)NC(=O)[C@H](CO)NC(=O)[C@@H](NC(=O)[C@H](Cc1ccccc1)NC(=O)[C@@H](NC(=O)CNC(=O)CCCC(=O)O)[C@@H](C)O)[C@@H](C)CC)[C@@H](C)CC)C(=O)N[C@@H](CCCCNC(=O)COCCOCCNC(=O)COCCOCCNC(=O)CC[C@H](NC(=O)CCCCCCCCCCCCCCCCC(=O)O)C(=O)O)C(=O)N[C@@H](CCC(N)=O)C(=O)N[C@@H](CCC(N)=O)C(=O)N[C@@H](CCC(=O)O)C(=O)N[C@@H](Cc1ccccc1)C(=O)N[C@H](C(=O)N[C@@H](CCC(=O)O)C(=O)N[C@@H](Cc1c[nH]c2ccccc12)C(=O)N[C@@H](CC(C)C)C(=O)N[C@@H](CC(C)C)C(=O)N[C@@H](C)C(=O)N[C@@H](CCC(N)=O)C(=O)N[C@@H](CCCCN)C(=O)N1CCC[C@H]1C(=O)N[C@@H](CO)C(=O)N[C@@H](CO)C(=O)NCC(=O)N[C@@H](C)C(=O)N1CCC[C@H]1C(=O)N1CCC[C@H]1C(=O)N1CCC[C@H]1C(=O)N[C@@H](CO)C(=O)O)C(C)C

Biological target: T1, human GIP receptor
Assay: cell-based or functional assay

| Binder | nM (Kb, Gaddum assay, cAMP) [nM] | pKb (Gaddum assay, cAMP) |
| --- | --- | --- |
| B1 | 4.1 | 8.4 |
| B2 | 0.23 | 9.6 |
| B3 | 0.23 | 9.6 |
| B4 | 0.92 | 9 |
| B5 | 2.2 | 8.7 |
| B6 | 0.23 | 9.6 |
| Suc-GTFISEYSI[Aib]LEKIK([AEEA-AEEA-γGlu-C18 diacid])QQEFVEWLLAQKPSSGAPPPS-OH [AT752] | 0.52 | 9.3 |
